From article PMC7861563, “FOXP1 Interacts with MyoD to Repress its Transcription and Myoblast Conversion” (Journal of cellular signaling, 2021) come the findings set out here.

Test [1] deals with MyoD, bacterially expressed (UniProt P10085).
Test [2] concerns the target T1, Myoblast Determination protein 1 (MYOD1/MyoD), endogenous in C2C12 (mouse (endogenous in C2C12), UniProt P10085 1-318).
T1 sequence (looked up): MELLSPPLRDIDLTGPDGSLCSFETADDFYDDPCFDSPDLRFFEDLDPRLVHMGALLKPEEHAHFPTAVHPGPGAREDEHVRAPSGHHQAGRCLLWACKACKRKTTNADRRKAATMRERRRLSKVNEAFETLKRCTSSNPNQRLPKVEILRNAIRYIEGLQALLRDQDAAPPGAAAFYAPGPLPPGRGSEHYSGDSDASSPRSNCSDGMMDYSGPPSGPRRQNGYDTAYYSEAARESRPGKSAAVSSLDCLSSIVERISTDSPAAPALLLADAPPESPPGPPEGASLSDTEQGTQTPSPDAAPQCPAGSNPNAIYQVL
Kind of test: cell-based or functional assay.

In the case of “GST-FOXP Forkhead domain (GST-Fkh) (domain or fragment)”, in test [1], the EMSA titration: amount of GST-Fkh for full inhibition of DNA binding of MyoD homodimers (200ng/reaction) stood at 100 ng and the EMSA titration: amount of GST-Fkh for full inhibition of DNA binding of MyoD-E47N (MyoD 200ng, E47N 50ng/reaction) stood at 400 ng.

B1: Forkhead Box P1 (FOXP1), endogenous in C2C12 (natural protein, mouse (endogenous in C2C12), UniProt P58462 1-705, looked up)
chain: MMQESGSETKSNGSAIQNGSSGGNHLLECGALRDTRSNGEAPAVDLGAADLAHVQQQQQQALQVARQLLLQQQQQQQQQQQQQQQQQQQQQQQQQQQQQQQQQQQQQVSGLKSPKRNDKQPALQVPVSVAMMTPQVITPQQMQQILQQQVLSPQQLQVLLQQQQALMLQQQLQEFYKKQQEQLQLQLLQQQHAGKQPKEQQVATQQLAFQQQLLQMQQLQQQHLLSLQRQGLLTIQPGQPALPLQPLAQGMIPTELQQLWKEVTSAHTAEETTSSNHSSLDLTSTCVSSSAPSKSSLIMNPHASTNGQLSVHTPKRESLSHEEHPHSHPLYGHGVCKWPGCEAVCDDFPAFLKHLNSEHALDDRSTAQCRVQMQVVQQLELQLAKDKERLQAMMTHLHVKSTEPKAAPQPLNLVSSVTLSKSASEASPQSLPHTPTTPTAPLTPVTQGPSVITTTSMHTVGPIRRRYSDKYNVPISSADIAQNQEFYKNAEVRPPFTYASLIRQAILESPEKQLTLNEIYNWFTRMFAYFRRNAATWKNAVRHNLSLHKCFVRVENVKGAVWTVDEVEFQKRRPQKISGNPSLIKNMQSSHAYCTPLNAALQASMAENSIPLYTTASMGNPTLGSLASAIREELNGAMEHTNSNESDSSPGRSPMQAVHPIHVKEEPLDPEEAEGPLSLVTTANHSPDFDHDRDYEDEPVNEDME
On to B1, for which, in test [2], the “MCK enhancer E box firefly luciferase reporter in 10T1/2 cells after 5-azacytidine, FOXP1 expression plasmid in varying amounts (highest input ~3-fold molar excess over MyoD)” value is about 20 fold and the “luciferase reporter driven by 2 E-box consensus MyoD binding sites (2R-luc) in differentiating C2C12, normalized to β-galactosidase” value was about 12 fold.
